Target: calmodulin (CaM) (UniProt P0DP23 1-149)
Test: ITC

| Binder | Kd |
| --- | --- |
| human NaV1.2 CTD (1777-1937) H1853R (domain or fragment) ENFSVATEESAEPLSEDDFEMFYEVWEKFDPDATQFIEFAKLSDFADALDPPLLIAKPNKVQLIAMDLPMVSGDRIRCLDILFAFTKRVLGESGEMDALRIQMEERFMASNPSKVSYEPITTTLKRKQEEVSAIIIQRAYRRYLLKQKVKKVSSIYKKDKG | 172 nM |
| human NaV1.2 CTD (1777-1937) R1918H (domain or fragment) ENFSVATEESAEPLSEDDFEMFYEVWEKFDPDATQFIEFAKLSDFADALDPPLLIAKPNKVQLIAMDLPMVSGDRIHCLDILFAFTKRVLGESGEMDALRIQMEERFMASNPSKVSYEPITTTLKRKQEEVSAIIIQRAYRHYLLKQKVKKVSSIYKKDKG | 112 nM |
| human NaV1.6 C-terminal domain (CTD), amino acids 1769-1926, wild type (domain or fragment) FSVATEESADPLSEDDFETFYEIWEKFDPDATQFIEYCKLADFADALEHPLRVPKPNTIELIAMDLPMVSGDRIHCLDILFAFTKRVLGDSGELDILRQQMEERFVASNPSKVSYEPITTTLRRKQEEVSAVVLQRAYRGHLARRGFICKKTTSNKLE | 276 nM |
